One series has as its system Colo320 cells. The experiment in a line: Cellular uptake of FITC-labelled peptides. The note with it: FITC derivatives. The class given is cell-based. As to the method:
(§1) For fluorescence microscopy evaluation, cells were prepared using a cytocentrifuge (Thermo Shandon) and fixed as previously described (Sukhdeo, K. et al. Proc Natl Acad Sci USA 104, 7516-21 (2007); Mani, M. et al. Cancer Res 69, 7577-86 (2009)). Anti-β-catenin and rhodamine-conjugated secondary antibodies (5 μg/ml; Southern Biotechnology) were employed. Images were obtained using a BioRad Radiance 2000 laser scanning confocal microscope. Cell permeability of SAH-BCL9B and SAH-BCL9B(R359E) were determined by fluorescence microscopy of cells treated with FITC-derivatives of the above described stapled peptides and also by blotting/fluorescence scan, performed as previously described (Pitter, K. et al Methods Enzymol, 446, (2008), 387-408; Walensky, L. D. et al. Science 305, 1466-70 (2004). See results in FIG. 1E, FIG. 7.

Another series deals with MM1S cells. The series can be described thus: Cellular uptake of FITC-labelled peptides. In kind it is cell-based. The note with it: FITC derivatives. As to the method: as §1
Another series addresses T1, β-catenin (Homo sapiens, UniProt P35222).
T1 construct: endogenous in cells; host or cells: Colo320
T1 sequence (P35222 1-781): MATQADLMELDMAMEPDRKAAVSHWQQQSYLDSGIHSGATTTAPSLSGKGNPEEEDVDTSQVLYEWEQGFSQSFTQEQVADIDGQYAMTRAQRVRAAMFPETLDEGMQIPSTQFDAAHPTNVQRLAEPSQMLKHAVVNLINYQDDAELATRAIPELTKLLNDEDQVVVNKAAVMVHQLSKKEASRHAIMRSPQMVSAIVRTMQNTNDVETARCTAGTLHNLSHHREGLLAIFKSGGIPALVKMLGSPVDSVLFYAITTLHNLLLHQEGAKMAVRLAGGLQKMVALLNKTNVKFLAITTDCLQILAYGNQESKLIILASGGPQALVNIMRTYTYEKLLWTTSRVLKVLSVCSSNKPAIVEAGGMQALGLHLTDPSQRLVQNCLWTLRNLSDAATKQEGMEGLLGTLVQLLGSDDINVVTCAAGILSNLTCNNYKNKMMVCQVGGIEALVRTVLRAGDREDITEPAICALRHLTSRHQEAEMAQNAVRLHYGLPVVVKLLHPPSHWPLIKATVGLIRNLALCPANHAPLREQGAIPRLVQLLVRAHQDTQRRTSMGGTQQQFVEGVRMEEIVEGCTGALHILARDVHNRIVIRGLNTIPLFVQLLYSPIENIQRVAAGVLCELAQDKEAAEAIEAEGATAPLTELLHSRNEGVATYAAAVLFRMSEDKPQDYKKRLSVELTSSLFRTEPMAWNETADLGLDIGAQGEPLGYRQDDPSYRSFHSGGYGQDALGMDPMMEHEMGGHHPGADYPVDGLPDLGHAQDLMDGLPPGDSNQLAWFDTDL
The experiment in a line: Anti-FITC / anti-β-catenin co-immunoprecipitation from lysates of peptide-treated cells. In kind it is cell-based. The note with it: FITC and β-catenin immunoprecipitation, in situ. The source says: (§2) Western blotting, performed as described (Sukhdeo, K. et al. Proc Natl Acad Sci USA 104, 7516-21 (2007)), employed the following primary antibodies: BCL9 (6109) (Mani, M. et al. Cancer Res 69, 7577-86 (2009)), BCL9 (ab37305, Abcam), B9L (AF4967, R&D Systems), β-catenin (CAT5-H10, Zymed), FITC (ab19224, Abcam), Actin-HRP (C-11, Santa Cruz), Caspase3 (#9662, Cell Signaling), IκBα (#9242, Cell signaling), PARP (#9542, Cell Signaling), E-cadherin (#3195, Cell Signaling), and Lamin B (sc-6217, Santa Cruz). Horseradish peroxidase conjugated secondary antibodies were purchased from Santa Cruz and SouthernBiotech. Co-immunoprecipitation was performed as described (Walensky, L. D. et al. Science 305, 1466-70 (2004)). Briefly, cells were lysed in 50 mM Tris, 150 mM NaCl, and 1% CHAPS buffer containing protease and phosphatase inhibitors. Lysates were precleared with Protein A/G PLUS-agarose beads (Santa Cruz Biotechnologies) for 3 hours followed by overnight incubation at 4° C. with the respective antibodies. Agarose A/G beads were then added for 4 h, pelleted, and washed as described (Walensky, L. D. et al. Science 305, 1466-70 (2004)). See results in FIG. 1D, FIG. 1H, FIG. 2A, FIG. 8.

The target in series [1] is T2, β-catenin/E-cadherin interaction (Homo sapiens, UniProt P35222).
T2 construct: anti-β-catenin co-immunoprecipitation of E-cadherin from MCF7 cell lysates; endogenous in cells; host or cells: MCF7
T2 sequence (P35222 2-781 limits assumed): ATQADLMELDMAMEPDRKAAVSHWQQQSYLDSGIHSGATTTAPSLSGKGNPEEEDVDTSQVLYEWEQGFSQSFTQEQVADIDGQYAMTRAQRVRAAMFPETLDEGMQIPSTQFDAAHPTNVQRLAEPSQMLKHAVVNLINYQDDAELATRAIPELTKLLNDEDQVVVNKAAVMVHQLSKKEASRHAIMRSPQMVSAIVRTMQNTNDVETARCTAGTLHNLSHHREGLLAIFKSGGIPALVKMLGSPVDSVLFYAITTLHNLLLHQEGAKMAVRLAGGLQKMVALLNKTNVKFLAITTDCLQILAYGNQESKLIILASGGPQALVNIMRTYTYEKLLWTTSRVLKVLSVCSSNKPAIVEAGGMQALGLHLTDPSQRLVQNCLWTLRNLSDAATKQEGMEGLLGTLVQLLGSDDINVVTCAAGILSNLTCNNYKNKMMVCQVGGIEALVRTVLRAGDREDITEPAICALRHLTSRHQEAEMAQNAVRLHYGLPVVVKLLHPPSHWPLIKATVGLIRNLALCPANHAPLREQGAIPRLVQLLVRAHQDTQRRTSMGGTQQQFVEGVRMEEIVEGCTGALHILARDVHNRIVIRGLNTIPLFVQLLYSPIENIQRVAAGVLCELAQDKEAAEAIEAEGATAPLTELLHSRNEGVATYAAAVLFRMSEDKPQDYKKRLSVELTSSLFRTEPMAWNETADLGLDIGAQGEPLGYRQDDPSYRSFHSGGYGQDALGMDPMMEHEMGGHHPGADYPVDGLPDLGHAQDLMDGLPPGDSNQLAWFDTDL
The series can be described thus: Anti-β-catenin co-immunoprecipitation of E-cadherin from MCF7 cell lysates. In kind it is cell-based. The note with it: selectivity.
Description: as §2

A further series has as its system IκBα and actin. The experiment in a line: Anti-FITC pulldown from MCF7 lysates (unrelated proteins). In kind it is cell-based. Conditions: MCF7 cells, selectivity.
Description: as §2

The subject of series [2] is β-catenin/TCF interaction. Conditions: Lepourcelet et al. 2004; cited from earlier work.
In a further series the test system is colon cancer cells. The note with it: Lepourcelet et al. 2004; cited from earlier work.
For series [3] the following is noted: Sukhdeo et al. 2007; cited from earlier work.

For “FITC-SAH-BCL9B(R359E): FITC derivative of SAH-BCL9B(R359E)”, the cellular uptake entry in the series with Colo320 cells and in the series on MM1S cells was “equivalent cellular uptake” in each case. Moreover, the temperature-dependent uptake result with Colo320 cells is reported as “equivalent temperature-dependent uptake”.
Take “FITC-SAH-BCL9B: FITC derivative (via β-Ala at the amino terminus) of SAH-BCL9B”: in the series with Colo320 cells, the cellular uptake result is recorded as “equivalent cellular uptake” and the temperature-dependent uptake entry was “equivalent temperature-dependent uptake”. Also, the cellular uptake result in the series on MM1S cells is “equivalent cellular uptake”. Also, the “β-catenin interaction by co-immunoprecipitation” value in the series with β-catenin is given as “dose-responsively co-immunoprecipitated with β-catenin”. Besides, in series [1], the “effect on β-catenin's interaction with E-cadherin” value is reported as “no effect”. Moreover, in the series with IκBα and actin, the “co-immunoprecipitation of unrelated proteins (IκBα, actin)” value is on record as “no co-immunoprecipitation of unrelated proteins”.
Take PKF115-584: the Wnt-specific transcriptional activity result in series [2] is “blocked Wnt-specific transcriptional activity”. The “growth of colon cancer cells” value with colon cancer cells is recorded as “reduced the growth of colon cancer cells”. Further, the “toxicity in treated mice” value in series [3] is “severe bone marrow hypoplasia, anemia, and generalized wasting”.
As to “SAH-BCL9B(H358D): SEQ ID NO: 6: LSQEQLEDRERSLXTLRXIQRBLF; reverse polarity point mutant of SAH-BCL9B”, the cellular uptake entry in the series with Colo320 cells is reported as “similar”. Further, in the series with β-catenin, the “β-catenin interaction by co-immunoprecipitation” value was “impaired β-catenin interaction”.

These data come from patent publication US12534501B2, “Targeting deregulated Wnt signaling in cancer using stabilized alpha-helices of BCL-9” (Dana-Farber Cancer Institute, Inc., priority 2011, dated 2026).
